Test results reported in paper PMC11630639, “Real-time single-molecule imaging of CaMKII-calmodulin interactions” (Biophysical Journal, 2024).

How the values were obtained:
[1] = target: wheat germ rhodamine-calmodulin (r-CAM) (UniProt P04464); experiment: single-molecule two-colour TIRFM, immobilised holoenzyme; conditions: reference: T287A holoenzyme (T306, T307 intact); sites T306,T307
[2] = target: the molecule itself; experiment: single-molecule stepwise photobleaching of Venus (TIRF microscopy); V-CaMKII held on a coverslip by GFP antibody; photobleaching steps in the Venus channel counted with a step-finder algorithm to give subunit stoichiometry (S_CaMKII)

CaMKIIβ (Venus-CaMKIIβ) (from UniProt P28652) T287A/T306A/T307A holoenzyme
other: τ+/τ− ratio [1]: stronger; reference 1.76

B1: Venus-CaMKIIβ T287.306-307A holoenzyme (enzyme, mouse, UniProt P28652 1-542, looked up)
chain: MATTVTCTRFTDEYQLYEDIGKGAFSVVRRCVKLCTGHEYAAKIINTKKLSARDHQKLEREARICRLLKHSNIVRLHDSISEEGFHYLVFDLVTGGELFEDIVAREYYSEADASHCIQQILEAVLHCHQMGVVHRDLKPENLLLASKCKGAAVKLADFGLAIEVQGDQQAWFGFAGTPGYLSPEVLRKEAYGKPVDIWACGVILYILLVGYPPFWDEDQHKLYQQIKAGAYDFPSPEWDTVTPEAKNLINQMLTINPAKRITAHEALKHPWVCQRSTVASMMHRQEAVECLKKFNARRKLKGAILAAMLATRNFSVGRQTTAPATMSTAASGTTMGLVEQAKSLLNKKADGVKPQTNSTKNSSAITSPKGSLPPAALEPQTTVIHNPVDGIKESSDSTNTTIEDEDAKARKQEIIKTTEQLIEAVNNGDFEAYAKICDPGLTSFEPEALGNLVEGMDFHRFYFENLLAKNSKPIHTTILNPHVHVIGEDAACIAYIRLTQYIDGQGRPRTSQSEETRVWHRRDGKWQNVHFHCSGAPVAPLQ
notes: CaMKII β isoform with T to A substitutions at T287, T306 and T307; also called T287.T306.307A; phosphorylation-defective holoenzyme; source: E. coli BL21/Rosetta or BL21/C41, cotransformed with a protein phosphatase plasmid; copies: 14
binding result [2]: binds
